B1: anti-NGF feline IgG1a, Fc variant S434Y, S254K (antibody, part only; not given: anti-NGF variable domains, light chain, not shown: another chain or arm of the molecule; small tags and cut ends)
Fc: PPEMLGGPSIFIFPPKPKDTLSIKRTPEVTCLVVDLGPDDSDVQITWFVDNTQVYTAKTSPREEQFNSTYRVVSVLPILHQDWLKGKEFKCKVNSKSLPSPIERTISKAKGQPHEPQVYVLPPAQEELSRNKVSVTCLIKSFHPPDIAVEWEITGQPEPENNYRTTPPQLDSDGTYFVYSKLSVDRSHWQRGNTYTCSVSHEALHYHHTQKSLTQSPGK
B2: anti-NGF feline IgG1a, Fc variant S434Y, E293K (antibody, part only; not given: anti-NGF variable domains, light chain, not shown: another chain or arm of the molecule; small tags and cut ends)
Fc: PPEMLGGPSIFIFPPKPKDTLSISRTPEVTCLVVDLGPDDSDVQITWFVDNTQVYTAKTSPRKEQFNSTYRVVSVLPILHQDWLKGKEFKCKVNSKSLPSPIERTISKAKGQPHEPQVYVLPPAQEELSRNKVSVTCLIKSFHPPDIAVEWEITGQPEPENNYRTTPPQLDSDGTYFVYSKLSVDRSHWQRGNTYTCSVSHEALHYHHTQKSLTQSPGK
B3: anti-NGF feline IgG1a, Fc variant S434F (antibody, part only; not given: anti-NGF variable domains, light chain, not shown: another chain or arm of the molecule; small tags and cut ends)
Fc: PPEMLGGPSIFIFPPKPKDTLSISRTPEVTCLVVDLGPDDSDVQITWFVDNTQVYTAKTSPREEQFNSTYRVVSVLPILHQDWLKGKEFKCKVNSKSLPSPIERTISKAKGQPHEPQVYVLPPAQEELSRNKVSVTCLIKSFHPPDIAVEWEITGQPEPENNYRTTPPQLDSDGTYFVYSKLSVDRSHWQRGNTYTCSVSHEALHFHHTQKSLTQSPGK
B4: anti-NGF feline IgG1a, Fc variant S434Y, L309E (antibody, part only; not given: Anti-NGF variable domains, not shown: another chain or arm of the molecule; small tags and cut ends)
Fc: PPEMLGGPSIFIFPPKPKDTLSISRTPEVTCLVVDLGPDDSDVQITWFVDNTQVYTAKTSPREEQFNSTYRVVSVLPIEHQDWLKGKEFKCKVNSKSLPSPIERTISKAKGQPHEPQVYVLPPAQEELSRNKVSVTCLIKSFHPPDIAVEWEITGQPEPENNYRTTPPQLDSDGTYFVYSKLSVDRSHWQRGNTYTCSVSHEALHYHHTQKSLTQSPGK
B5: anti-NGF feline IgG1a, Fc variant S434Y, T289K (antibody, part only; not given: Anti-NGF variable domains, not shown: another chain or arm of the molecule; small tags and cut ends)
Fc: PPEMLGGPSIFIFPPKPKDTLSISRTPEVTCLVVDLGPDDSDVQITWFVDNTQVYTAKKSPREEQFNSTYRVVSVLPILHQDWLKGKEFKCKVNSKSLPSPIERTISKAKGQPHEPQVYVLPPAQEELSRNKVSVTCLIKSFHPPDIAVEWEITGQPEPENNYRTTPPQLDSDGTYFVYSKLSVDRSHWQRGNTYTCSVSHEALHYHHTQKSLTQSPGK
B6: anti-NGF feline IgG1a, Fc variant S434Y, K326D (antibody, part only; not given: anti-NGF variable domains, light chain, not shown: another chain or arm of the molecule; small tags and cut ends)
Fc: PPEMLGGPSIFIFPPKPKDTLSISRTPEVTCLVVDLGPDDSDVQITWFVDNTQVYTAKTSPREEQFNSTYRVVSVLPILHQDWLKGKEFKCKVNSDSLPSPIERTISKAKGQPHEPQVYVLPPAQEELSRNKVSVTCLIKSFHPPDIAVEWEITGQPEPENNYRTTPPQLDSDGTYFVYSKLSVDRSHWQRGNTYTCSVSHEALHYHHTQKSLTQSPGK
B7: anti-NGF feline IgG1a, Fc variant S434Y, L262E (antibody, part only; not given: Anti-NGF variable domains, not shown: another chain or arm of the molecule; small tags and cut ends)
Fc: PPEMLGGPSIFIFPPKPKDTLSISRTPEVTCEVVDLGPDDSDVQITWFVDNTQVYTAKTSPREEQFNSTYRVVSVLPILHQDWLKGKEFKCKVNSKSLPSPIERTISKAKGQPHEPQVYVLPPAQEELSRNKVSVTCLIKSFHPPDIAVEWEITGQPEPENNYRTTPPQLDSDGTYFVYSKLSVDRSHWQRGNTYTCSVSHEALHYHHTQKSLTQSPGK
B8: anti-NGF feline IgG1a, Fc variant S434Y, T286D (antibody, part only; not given: anti-NGF variable domains, not shown: another chain or arm of the molecule; small tags and cut ends)
Fc: PPEMLGGPSIFIFPPKPKDTLSISRTPEVTCLVVDLGPDDSDVQITWFVDNTQVYDAKTSPREEQFNSTYRVVSVLPILHQDWLKGKEFKCKVNSKSLPSPIERTISKAKGQPHEPQVYVLPPAQEELSRNKVSVTCLIKSFHPPDIAVEWEITGQPEPENNYRTTPPQLDSDGTYFVYSKLSVDRSHWQRGNTYTCSVSHEALHYHHTQKSLTQSPGK
B9: anti-NGF feline IgG1a, Fc variant S434Y, L309V (antibody, part only; not given: anti-NGF variable domains, light chain, not shown: another chain or arm of the molecule; small tags and cut ends)
Fc: PPEMLGGPSIFIFPPKPKDTLSISRTPEVTCLVVDLGPDDSDVQITWFVDNTQVYTAKTSPREEQFNSTYRVVSVLPIVHQDWLKGKEFKCKVNSKSLPSPIERTISKAKGQPHEPQVYVLPPAQEELSRNKVSVTCLIKSFHPPDIAVEWEITGQPEPENNYRTTPPQLDSDGTYFVYSKLSVDRSHWQRGNTYTCSVSHEALHYHHTQKSLTQSPGK
B10: anti-NGF feline IgG1a, Fc variant S434Y, E293D (antibody, part only; not given: anti-NGF variable domains, light chain, not shown: another chain or arm of the molecule; small tags and cut ends)
Fc: PPEMLGGPSIFIFPPKPKDTLSISRTPEVTCLVVDLGPDDSDVQITWFVDNTQVYTAKTSPRDEQFNSTYRVVSVLPILHQDWLKGKEFKCKVNSKSLPSPIERTISKAKGQPHEPQVYVLPPAQEELSRNKVSVTCLIKSFHPPDIAVEWEITGQPEPENNYRTTPPQLDSDGTYFVYSKLSVDRSHWQRGNTYTCSVSHEALHYHHTQKSLTQSPGK
B11: anti-NGF feline IgG1a, Fc variant S434F, E380D (antibody, part only; not given: anti-NGF variable domains, light chain, not shown: another chain or arm of the molecule; small tags and cut ends)
Fc: PPEMLGGPSIFIFPPKPKDTLSISRTPEVTCLVVDLGPDDSDVQITWFVDNTQVYTAKTSPREEQFNSTYRVVSVLPILHQDWLKGKEFKCKVNSKSLPSPIERTISKAKGQPHEPQVYVLPPAQEELSRNKVSVTCLIKSFHPPDIAVDWEITGQPEPENNYRTTPPQLDSDGTYFVYSKLSVDRSHWQRGNTYTCSVSHEALHFHHTQKSLTQSPGK
B12: anti-NGF feline IgG1a, Fc variant S434Y, T286E (antibody, part only; not given: anti-NGF variable domains, light chain, not shown: another chain or arm of the molecule; small tags and cut ends)
Fc: PPEMLGGPSIFIFPPKPKDTLSISRTPEVTCLVVDLGPDDSDVQITWFVDNTQVYEAKTSPREEQFNSTYRVVSVLPILHQDWLKGKEFKCKVNSKSLPSPIERTISKAKGQPHEPQVYVLPPAQEELSRNKVSVTCLIKSFHPPDIAVEWEITGQPEPENNYRTTPPQLDSDGTYFVYSKLSVDRSHWQRGNTYTCSVSHEALHYHHTQKSLTQSPGK
B13: anti-NGF feline IgG1a, Fc variant S434Y, Q347L (antibody, part only; not given: Anti-NGF variable domains, not shown: another chain or arm of the molecule; small tags and cut ends)
Fc: PPEMLGGPSIFIFPPKPKDTLSISRTPEVTCLVVDLGPDDSDVQITWFVDNTQVYTAKTSPREEQFNSTYRVVSVLPILHQDWLKGKEFKCKVNSKSLPSPIERTISKAKGQPHEPLVYVLPPAQEELSRNKVSVTCLIKSFHPPDIAVEWEITGQPEPENNYRTTPPQLDSDGTYFVYSKLSVDRSHWQRGNTYTCSVSHEALHYHHTQKSLTQSPGK

In the assay the target is feline FcRn (FCN-F82W3, Acrobiosystems) (feline). Description: SPR Carterra, IgG coupled, pH 6.0.
The Kd is a measure of binding affinity in units of concentration. A low value points to tighter binding. As usually defined, the koff is the rate constant with which the complex falls apart. A lower koff goes with a long-lived complex. For orientation: kon means the second-order rate constant of association. Higher therefore signals fast association. B1 returned a Kd of 3.1 nM, a koff of 0.00504 s⁻¹ and a kon of 1.61e+06 M⁻¹ s⁻¹.
In turn, B2 showed a Kd of 4.1 nM, a koff of 0.00501 s⁻¹ and a kon of 1.22e+06 M⁻¹ s⁻¹.
On to B3, for which the Kd is 4.2 nM, the koff came to 0.00718 s⁻¹ and the kon was 1.73e+06 M⁻¹ s⁻¹.
B4 showed a Kd of 4.1 nM, an off-rate (koff) of 0.00458 s⁻¹ and a kon of 1.13e+06 M⁻¹ s⁻¹.
As for B5, the Kd was 3.6 nM, the koff was determined as 0.00559 s⁻¹ and the association rate constant (kon) was found to be 1.53e+06 M⁻¹ s⁻¹.
The matching figures for B6: 4 nM, 0.00549 s⁻¹ and 1.38e+06 M⁻¹ s⁻¹.
On to B7, for which the dissociation constant Kd came out at 3.3 nM, the koff turned out to be 0.00498 s⁻¹ and the kon was found to be 1.51e+06 M⁻¹ s⁻¹.
In the case of B8, the Kd is 2.9 nM, the koff stood at 0.00371 s⁻¹ and the kon was 1.28e+06 M⁻¹ s⁻¹.
As to B9, the Kd was 1.8 nM, the off-rate (koff) was determined as 0.004 s⁻¹ and the on-rate constant (kon) stood at 2.21e+06 M⁻¹ s⁻¹.
Regarding B10, the Kd came out at 3.4 nM, the off-rate constant (koff) was 0.00534 s⁻¹ and the on-rate constant (kon) was 1.57e+06 M⁻¹ s⁻¹.
Molecule B11 displayed a Kd of 3.3 nM, a koff of 0.00583 s⁻¹ and a kon of 1.77e+06 M⁻¹ s⁻¹.
Consider B12, for which the Kd stood at 3.6 nM, the koff worked out at 0.00345 s⁻¹ and the kon was determined as 965000 M⁻¹ s⁻¹.
For B13, the Kd amounted to 3.4 nM, the koff is 0.00667 s⁻¹ and the kon amounted to 1.98e+06 M⁻¹ s⁻¹.

The record behind these values is patent US20250304650A1.
